Experimental data: patent US20150231240A1, “ANTI-C16ORF54 ANTIBODIES AND METHODS OF USE THEREOF” (priority 2012, published 2015)

T1: cynomolgus monkey C16orf54 (cynomolgus monkey (Macaca fascicularis), UniProt Q6UWD8 1-224 (human entry))
T1 construct: also called cyno C16orf54; cyno-C16orf54
T1 chain: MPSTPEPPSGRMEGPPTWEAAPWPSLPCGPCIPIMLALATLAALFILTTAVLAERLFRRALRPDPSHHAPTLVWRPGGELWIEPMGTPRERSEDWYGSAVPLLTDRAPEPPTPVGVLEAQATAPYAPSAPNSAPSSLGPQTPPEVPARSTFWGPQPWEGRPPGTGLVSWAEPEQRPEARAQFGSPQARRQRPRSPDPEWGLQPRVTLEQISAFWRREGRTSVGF

T2: human C16orf54 (human, UniProt Q6UWD8 1-224)
T2 construct: also called huC16orf54; hC16orf54
T2 sequence: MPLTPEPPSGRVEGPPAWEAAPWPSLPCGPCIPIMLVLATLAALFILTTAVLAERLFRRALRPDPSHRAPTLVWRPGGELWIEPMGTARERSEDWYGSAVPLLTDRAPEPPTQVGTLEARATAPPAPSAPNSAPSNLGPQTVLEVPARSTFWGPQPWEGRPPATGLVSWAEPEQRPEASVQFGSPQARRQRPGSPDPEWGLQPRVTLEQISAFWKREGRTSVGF


Experiments:
[1] = test system: KG-1 (acute myeloid leukemia) xenograft; format: in vivo, NOD-SCID mice; conditions: Table 44; dose not given; KG-1 AML model
Method: Subcutaneous tumors are generated by injection of 1×10^7 cancer cells in a mixture of PBS (without magnesium or calcium) and BD Matrigel™ (BD Biosciences) at a 1:1 ratio in the right flank of female SCID or nu^−/− mice. The injected total volume per mouse is […] with 50% being Matrigel (BD Biosciences). Mice are randomized once tumors reach a size between 65-200 mm^3. Antibodies are administered weekly, and body weights and tumors are measured once and twice weekly, respectively. Tumor volume is calculated as described (van der Horst et al. (2009) Neoplasia 11: 355-364). As a negative control, mice are injected with either purified mouse IgG or PBS; or a purified monoclonal antibody that recognizes an antigen other than C16orf54.
Anti-C16orf54 antibodies were tested for their anti-tumor activity in an animal-tumor model. For these studies, the cell line KG-1 (acute myeloid leukemia) was obtained from ATCC and cultured according to the suppliers' protocols. Animals were obtained from Taconic (Hudson, N.Y.). Studies were conducted with anti-C16orf54 antibodies and antibody-drug conjugates (ADCs) of these antibodies.
In these experiments, 4-6 week-old immunodeficient NOD-SCID female mice were used for the KG-1 tumor model. Mice were subcutaneously injected on the right flank with 6×10^6 viable cells (KG-1) in a mixture of PBS (without magnesium or calcium) and BD Matrigel™ (BD Biosciences). Once the tumor reached a size between 65-200 mm^3 mice were randomized. Anti-C16orf54 antibodies were administered weekly, and bodyweights and tumors were measured once and twice weekly, respectively. Tumor volume was calculated as described (van der Horst et al., supra). Experiments were performed on groups of at least eight animals per experimental point.
Statistical significance between treatment and control groups was calculated using the Graphpad Prism® software package and applying Student's two-tailed t-test. A p-value of less than 0.05 was considered significant.

[2] = target: T1, cynomolgus monkey C16orf54; assay: flow cytometry, 10 ug/ml antibody, F279-cyno-C16orf54 cells
Method: (§1) Anti-C16orf54 antibodies which bound to human C16orf54 were tested for their reactivity with human C16orf54 and their crossreactivity with C16orf54 from cynomolgous monkeys (cyno C16orf54) using flow cytometry. Sarcoma cells transfected with and expressing human C16orf54 or cyno C16orf54 were washed with PBS with 0.1% BSA, incubated with FcX receptor blocking solution (BioLegend) for 15 minutes, incubated with 10 μg/ml of anti-C16orf54 antibody for 1 hour at 4° C., washed twice with PBS with 0.1% BSA, incubated with 20 μg/ml of R-Phycoerythrin-AffiniPure F(ab′)2 Fragment Goat Anti-Mouse IgG, Fcγ Fragment Specific (Jackson ImmunoResearch) for 30 minutes at 4° C., washed twice with PBS with 0.1% BSA, incubated with the viability dye TO-PRO-3 iodide (Life Technologies), and immediately analyzed on a MACSQuant Analyzer instrument (Miltenyi). For each cell line and anti-C16orf54 antibody, a fold change was derived by dividing the median fluorescence intensity for Phycoerythrin in the live cell population for the anti-C16orf54 antibody by the median fluorescence intensity for Phycoerythrin in the live cell population for the IgG isotype control antibody. A number of anti-C16orf54 antibodies (see, e.g., R29-8-57B, R29-8-136C, R29-7-1C, R29-67-7A, R29-67-4A, and R29-7-2A) bind human C16orf54 and also bind (e.g., are crossreactive with) cyno C16orf54.

[3] = target: T2, human C16orf54; assay: flow cytometry, 10 ug/ml antibody, D42M1-huC16orf54 cells
Method: as §1

[4] = target: T2, human C16orf54; assay: flow cytometry titration, KG1 cells (endogenous human C16orf54)
[5] = target: T2, human C16orf54; assay: cell-based or functional assay

Molecule	TGI [1]	Volume [1]	Median fold change relative to IgG control [2]	Median fold change relative to IgG control [3]	EC50 [4]	IC50 nM, cell viability, C16orf54 expressing sarcoma line 2, 72 hours [5]	IC50 (nM), cell viability, C16orf54 expressing Sarcoma line 1, 72 hours [5]
O=P1(N(CCCl)CCCl)NCCCO1 (stereo not drawn) [Cyclophosphamide]	−42%	1580 mm^3	–	–	–	–	–
R29-8-50C (antibody, V domains shown, Murine monoclonal antibody from a hybridoma) VH: EVKLVESGGGLVKPGGSLKFSCAASGFTFSSYAVSWVRQTPEKRLEWVASITSGGRTYYPDSVKGRFTISRDNARSMLYLHMSSLRSEDTAMYYCTRGWDENDLWGQGTTLTVSS VL: DVVMTQTPLSLPVSLGDQASISCRSSQSLVYSNGNTYLHWYLQRPGQSPQLLIYKVSNRFSGVPDRFSGSGSGTDFTLKISRVEAEDLGVYFCSQTTHVPWTFGGGTKLEIK	–	–	3.2 fold	159 fold	0.7 nM	–	–
R29-8-9B (antibody, V domains shown, Murine monoclonal antibody from a hybridoma) VH: EVKLVESGGGVVKPGGSLKLSCAASGFTFSSYAMSWFRQTSEMSLEWVASITGGGGTYYPDSVKGRFTISRDTVRNILYLQMRSLRSGDTAIYYCARGWDENDYWGQGTTLTVSS VL: DVVMTQIPLSLPVSLGDQASISCRSSQSLVFSNGNTYLHWYFQKPGQSPKLLIYKVSNRFSGVPDRFSGSGSGTDFILRISRVEAEDLGVYFCSQSTHVPWTFGGGTKLEIK	–	–	2 fold	194 fold	1.5 nM	–	–
R29-8-19B (antibody, V domains shown, Murine monoclonal antibody from a hybridoma) VH: EVKLVESGGGLVKPGGSLKFSCAASGFTFSSYAVSWVRQTPEKRLEWVASITSGGRTYYPDSVKGRFTISRDNARSMLYLHMSSLRSEDTAMYYCTRGWDENDLWGQGTTLTVSS VL: DVVMTQTPLSLPVSLGDQASISCRSSQSLVYSNGNTYLHWYLQKPGQSPQLLIYKVSNRFSGVPDRFSGSGSGTDFTLKISRVEAEDLGVYFCSQTTHVPWTFGGGTKLEIK	–	–	4.5 fold	198 fold	0.9 nM	–	–
R29-8-120B (antibody, V domains shown, Murine monoclonal antibody from a hybridoma) VH: KVNLVESGGGLVKAGGSLKLSCAASGFTFSIYAMSWFRQTPEKRLEWVASITGGGTNFYPDSVRGRFTISRDNVRNILYLQMSSLRSEDTAMYYCARGWDENDYWGQGTTLTVSS VL: DVVMTQTPLSLPVSLGDQASISCRSSQSLVYSNGNTYLHWYLQKPGQSPKLLIYKVSNRFSGVPDRFSGSGSGTDFTLKISRVEAEDLGVYFCSQSTHVPWTFGGGTKLEIK	–	–	5.2 fold	106 fold	2.6 nM	–	–
R29-7A-53A (antibody, V domains shown, Murine monoclonal antibody from a hybridoma; also called R29-7-53A) VH: QVQLKESGPGLVAPSQSLSITCTVSGFSLTDYAISWIRQPPGKGLEWLGVIWGGGRTYSNSALKSRLSISKDNSRSQIFLKMNSLQTDDTAMYYCAKHEEVSRFAYWGQGTLVTVSV VL: DVVLTQTPLSLPVSLGDQASISCRSSQSLVYSNGNSYLHWYLQKPGQSPKLLIYKVSNRFSGVPDRFSGSGSGTDFTLKITRVEAEDLGVYFCSQSTHIPLTFGAGTKLELK	–	–	1.2 fold	5.7 fold	–	–	–
R29-8-28C (antibody, V domains shown, Murine monoclonal antibody from a hybridoma) VH: EVKLVESGGGVVKPGGSLTLSCAASGFTFSNYAVSWFRQTPEKRLEWVASITSGGRTYYPDSMKGRFTISRDNARNILYLQMSSLRSEDTAIYYCGRGWDENDYWGQGTTLTVSS VL: DVVMTQTPLSLPVSLGDQASISCRSSQSLVYSNGNTYLHWYLQKPGQSPKLLIYKVSNRFSGVPDRFSGSGSGTDFTLKINRVEAEDLGVYFCSQTTHVPWTFGGGTKLEIK	–	–	3.3 fold	156 fold	2.1 nM	–	–
R29-7A-54C (antibody, V domains shown, Murine monoclonal antibody from a hybridoma; also called R29-7-54C) VH: QVQLKESGPGLVAPSQSLSITCTVSGFSLTDYAISWIRQPPGKGLEWLGVIWGGGRTYSNSALKSRLSISKDNSRSQIFLKMNSLQTDDTAMYYCAKHEEVSRFAYWGQGTLVTVSV VL: DVVLTQTPLSLPVSLGDQASISCRSSQSLVYSNGNSYLHWYLQKPGQSPKLLIYKVSNRFSGVPDRFSGSGSGTDFTLKITRVEAEDLGVYFCSQSTHIPLTFGAGTKLELK	–	–	1 fold	12.1 fold	–	–	–
R29-8-12A (antibody, V domains shown, Murine monoclonal antibody from a hybridoma) VH: EVKLVESGGGLVKPGGSLKFSCAASGFTFSSYAVSWVRQTPEKRLEWVASITSGGRTYYPDSVKGRFTISRDNARSMLYLHMSSLRSEDTAMYYCTRGWDENDLWGQGTTLTVSS VL: DVVMTQTPLSLPVSLGDQASISCRSSQSLVYSNGNTYLHWYLQKPGQSPQLLIYKVSNRFSGVPDRFSGSGSGTDFTLKISRVEAEDLGVYFCSQTTHVPWTFGGGTKLEIK	–	–	3.6 fold	193 fold	1.1 nM	–	–
R29-8-36C (antibody, V domains shown, Murine monoclonal antibody from a hybridoma) VH: EVKLVESGGGLVKPGGSLKFSCAASGFTFSSYAVSWVRQTPEKRLEWVASITSGGRSYYPDSVKGRFTISRDNARSMLYLHMSSLRSEDTAMYYCTRGWDENDLWGQGTTLTVSS VL: DVVMTQTPLSLFVSLGDQASISCRSSQSLLYSNGNTYLHWYLQRPGQSPQLLIYKVSNRFSGVPDRFSGSGSGTDFTLKISRVEAEDLGVYFCSQTTHVPWTFGGGTKLEIK	–	–	3.6 fold	184 fold	0.6 nM	–	–
R29-7-1C-mcMMAF (protein, maleimidocaproyl-monomethylauristatin F (MC-MMAF) on reduced cysteine thiols of the antibody; positions not given) VH: DVQLQESGPGLVKPSQSLSLTCTVTGYSITSDYAWNWIRQFPGNKLEWMGYISYSGSIRYNPSLKSRISITRDTSKNQFFLQLNSVTTEDTATYYCAREKYDNYYYAMDYWGQGTSVTVSS VL: DIVMSQSPSSLAVSVGEKVTLSCKSSQNLLYSTNQKNYLAWYQQKPGQSPKLLIYWASTRESGVPDRFTGSGSGTDFTLTISSVKAEDLAVYYCQQYYSYRTFGGGTKLEIK	–	–	–	–	–	0.2 nM	0.1 nM
R29-67-7A mcMMAF (protein, maleimidocaproyl-monomethylauristatin F (MC-MMAF) on reduced cysteine thiols of the antibody; positions not given) VH: DVQLQESGPGLVKPSQSLSLTCTVTGYSITSDYAWNWIRQFPGNKLEWMGYINYSGRTRYNPSLNSRISLTRDTSTNQFFLQLNSVTTEDTATYYCARENYDYEFYAMDYWGQGTSVTVSS VL: DIVMSQSPSSLAVSVGEKVTMSCKSSQNLLYSSNQKNYLAWYQQKPGQSPKLLIYWASTRESGVPDRFTGSGSGTDFTLTISSVKAEDLAVYYCQQYYIYRTFGGGTKLEIK	–	–	–	–	–	0.1 nM	0.1 nM
R29-8-57B mcMMAF (protein, maleimidocaproyl-monomethylauristatin F (MC-MMAF) on reduced cysteine thiols of the antibody; positions not given) VH: DVQLQESGPGLVKPSQSLSLTCTVTGYSITSDYAWNWIRQFPGNKLEWMGYINYSGSTRYNPSLKSRISITRDTSKNHFFLQLNSVTPEDTATYHCARERYDGVYYGMDYWGQGTSVTVSS VL: DIVMSQSPSSLAVSVGEKVTMSCKSSQSLLYSSNQKNYLAWYQQKPGQSPKLLIYWASTRESGVPDRFTGSGSGTDFTLTISSVKTEDLAVYYCQQYYSYRTFGGGTKLEIK	–	–	–	–	–	0.1 nM	0.2 nM
